B1: GRIP and coiled-coil domain-containing protein 1 (Homo sapiens), Q96CN9 (parent)
chain: MEKFGMNFGGGPSKKDLLETIETQKKQLLQYQARLKDVVRAYKSLLKEKEALEASIKVLSVSHEADVGLAGVQLPGLTFPDSVDDRCSTHSEDSTGTATSLDTAASLTSTKGEFGVEDDRPARGPPPPKSEEASWSESGVSSSSGDGPFAGGEVDKRLHQLKTQLATLTSSLATVTQEKSRMEASYLADKKKMKQDLEDASNKAEEERARLEGELKGLQEQIAETKARLITQQHDRAQEQSDHALMLRELQKLLQEERTQRQDLELRLEETREALAGRAYAAEQMEGFELQTKQLTREVEELKSELQAIRDEKNQPDPRLQELQEEAARLKSHFQAQLQQEMRKTALAEDQLRQQSQVEEQRVAALENQISEVSELLGTYEKAKQKDQLAIQKLKERILQLDLENKTLALAASSRSPLDSHGEESSLDVNVLKDKMEKLKRLLQVAARKSQVTLDVEKLCDLEIMPSSEAADGEKATALYYQQELKQLKEEFERYKMRAQVVLKSKNTKDGNLGKELEAAQEQLAELKEKYISLRLSCEELEHQHQQEADDWKQELARLQQLHRQELERCQLDFRDRTLKLEEELHKQRDRALAVLTEKDLELEQLRSVALASGLPGRRSPVGGGGPGDPADTSSSDSLTQALQLAAANEPTFFLYAEQLARKEVEITSLRKQKHRLEVEVHQLQDRLLEEGERHREEVAALQSHIEKNIRDQSREGANLEYLKNIIYRFLTLPDSLGRQQTLTAILTILHFSPEEKQVIMRLPTSASWWPSGKR
partner: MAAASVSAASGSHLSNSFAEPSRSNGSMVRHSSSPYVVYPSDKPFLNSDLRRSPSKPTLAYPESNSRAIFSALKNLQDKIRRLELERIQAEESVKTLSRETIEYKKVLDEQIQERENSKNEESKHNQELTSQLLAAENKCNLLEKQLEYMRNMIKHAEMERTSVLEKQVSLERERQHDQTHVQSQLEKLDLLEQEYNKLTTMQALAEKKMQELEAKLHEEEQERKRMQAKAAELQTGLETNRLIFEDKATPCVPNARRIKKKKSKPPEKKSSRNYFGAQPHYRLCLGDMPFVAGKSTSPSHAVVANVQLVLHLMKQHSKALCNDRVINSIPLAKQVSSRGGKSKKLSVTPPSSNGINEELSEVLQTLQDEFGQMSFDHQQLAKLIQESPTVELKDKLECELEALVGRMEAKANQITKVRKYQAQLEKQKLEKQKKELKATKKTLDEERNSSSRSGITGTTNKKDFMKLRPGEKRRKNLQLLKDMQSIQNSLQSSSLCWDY
B2: Protein Dr1 (Homo sapiens), Q01658 (parent)
chain: MASSSGNDDDLTIPRAAINKMIKETLPNVRVANDARELVVNCCTEFIHLISSEANEICNKSEKKTISPEHVIQALESLGFGSYISEVKEVLQECKTVALKRRKASSRLENLGIPEEELLRQQQELFAKARQQQAELAQQEWLQMQQAAQQAQLAAASASASNQAGSSQDEEDDDDI
B3: Transcription factor 12 (Homo sapiens), Q99081-3 (parent)
chain: MNPQQQRMAAIGTDKELSDLLDFSAMFSPPVNSGKTRPTTLGSSQFSGSGIDERGGTTSWGTSGQPSPSYDSSRGFTDSPHYSDHLNDSRLGAHEGLSPTPFMNSNLMGKTSERGSFSLYSRDTGLPGCQSSLLRQDLGLGSPAQLSSSGKPGTAYYSFSATSSRRRPLHDSAALDPLQAKKVRKVPPGLPSSVYAPSPNSDDFNRESPSYPSPKPPTSMFASTFFMQDGTHNSSDLWSSSNGMSQPGFGGILGTSTSHMSQSSSYGNLHSHDRLSYPPHSVSPTDINTSLPPMSSFHRGSTSSSPYVAASHTPPINGSDSILGTRGNAAGSSQTGDALGKALASIYSPDHTSSSFPSNPSTPVGSPSPLTGTSQWPRPGGQAPSSPSYENSLHSLKNRVEQQLHEHLQDAMSFLKDVCEQSRMEDRLDRLDDAIHVLRNHAVGPSTSLPAGHSDIHSLLGPSHNAPIGSLNSNYGGSSLVASSRSASMVGTHREDSVSLNGNHSVLSSTVTTSSTDLNHKTQENYRGGLQSQSGTVVTTEIKTENKEKDENLHEPPSSDDMKSDDESSQKDIKVSSRGRTSSTNEDEDLNPEQKIEREKERRMANNARERLRVRDINEAFKELGRMCQLHLKSEKPQTKLLILHQAVAVILSLEQQVRERNLNPKAACLKRREEEKVSAVSAEPPTTLPGTHPGLSETTNPMGHM
partner: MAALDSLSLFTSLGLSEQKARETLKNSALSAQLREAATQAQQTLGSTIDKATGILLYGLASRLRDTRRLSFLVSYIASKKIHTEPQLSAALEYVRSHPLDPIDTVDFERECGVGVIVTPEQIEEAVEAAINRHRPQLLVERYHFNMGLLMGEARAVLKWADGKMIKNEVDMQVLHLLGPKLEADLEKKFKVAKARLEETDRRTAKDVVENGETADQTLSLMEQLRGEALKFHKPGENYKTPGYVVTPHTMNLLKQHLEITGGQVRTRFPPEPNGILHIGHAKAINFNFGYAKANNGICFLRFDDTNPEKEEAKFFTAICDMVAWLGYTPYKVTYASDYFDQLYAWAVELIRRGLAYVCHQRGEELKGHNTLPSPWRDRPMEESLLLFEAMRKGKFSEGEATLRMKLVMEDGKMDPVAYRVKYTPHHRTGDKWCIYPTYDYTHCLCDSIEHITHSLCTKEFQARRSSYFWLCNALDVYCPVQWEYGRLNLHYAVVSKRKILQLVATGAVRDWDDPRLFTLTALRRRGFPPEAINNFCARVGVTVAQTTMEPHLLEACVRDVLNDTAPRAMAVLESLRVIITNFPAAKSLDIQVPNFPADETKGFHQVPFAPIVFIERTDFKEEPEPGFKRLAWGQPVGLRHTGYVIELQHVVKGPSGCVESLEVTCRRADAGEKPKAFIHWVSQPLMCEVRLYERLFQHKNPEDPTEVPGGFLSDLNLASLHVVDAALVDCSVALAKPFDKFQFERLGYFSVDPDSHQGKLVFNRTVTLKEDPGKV

Variants of: B1
Conditions: with cep57_human CEP57, Q86XR8

| effect of a mutation on the interaction | Variant |
| --- | --- |
| with no effect | A274T |

Variants of: B2
Conditions: with dpoe3_human POLE3, Q9NRF9
Sequence of dpoe3_human POLE3, Q9NRF9 (Q9NRF9 whole entry): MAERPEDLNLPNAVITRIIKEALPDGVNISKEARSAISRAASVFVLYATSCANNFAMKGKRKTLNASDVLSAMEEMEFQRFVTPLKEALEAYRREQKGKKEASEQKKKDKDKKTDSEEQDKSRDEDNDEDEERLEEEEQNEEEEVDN

| effect of a mutation on the interaction | Variant |
| --- | --- |
| with no effect | E171D |

Variants of: B2
Conditions: with tbp_human TBP

| effect of a mutation on the interaction | Variant |
| --- | --- |
| with no effect | E171D |

Variants of: B3
Conditions: with syq_human QARS1, P47897

| effect of a mutation on the interaction | Variant |
| --- | --- |
| with no effect | Y120C |
| with no effect | R74G |
| with no effect | A482V |

Source: IntAct's records for PubMed 31515488
